Test results: US7070973B2, “Butyrylcholinesterase variants and methods of use” (priority 2000, dated 2006)

Test: Spectrophotometric (240 nm) cocaine binding and hydrolysis assay with purified butyrylcholinesterase variants
Format: biochemical
Conditions: Table 4
Procedure: […]. Pharmacol. 41:1249–1254 (1991). Km values were determined in 0.1M potassium phosphate pH 7.0 at 30° C. for (−)-cocaine. Vmax values and Km values were calculated using Sigma Plot for Macintosh (Jandel Scientific, San Rafael, Calif.).
Once Vmax values and Km values were calculated, the number of active sites in each butyrylcholinesterase preparation was determined. The titration of active sites was performed with chlorpyrifos oxon (MET-674B, Chem Service, West Chester, Pa.), an inhibitor of butyrylcholinesterase. One molecule of chlorpyrifos oxon binds and inhibits one molecule of butyrylcholinesterase, which allows for calculation of the number of active sites. Based on the number of active sites, the kcat value for each variant was calculated (Table 3). […].

Molecule | Cocaine Binding or Cocaine Hydrolysis (result in words)
S224Y (protein, UniProt P06276 29-602, looked up, variant S224Y) Cholinesterase: EDDIIIATKNGKVRGMNLTVFGGTVTAFLGIPYAQPPLGRLRFKKPQSLTKWSDIWNATKYANSCCQNIDQSFPGFHGSEMWNPNTDLSEDCLYLNVWIPAPKPKNATVLIWIYGGGFQTGTSSLHVYDGKFLARVERVIVVSMNYRVGALGFLALPGNPEAPGNMGLFDQQLALQWVQKNIAAFGGNPKSVTLFGESAGAASVSLHLLSPGSHSLFTRAILQYGSFNAPWAVTSLYEARNRTLNLAKLTGCSRENETEIIKCLRNKDPQEILLNEAFVVPYGTPLSVNFGPTVDGDFLTDMPDILLELGQFKKTQILVGVNKDEGTAFLVYGAPGFSKDNNSIITRKEFQEGLKIFFPGVSEFGKESILFHYTDWVDDQRPENYREALGDVVGDYNFICPALEFTKKFSEWGNNAFFYYFEHRSSKLPWPEWMGVMHGYEIEFVFGLPLERRDNYTKAEEILSRSIVKRWANFAKYGNPNETQNNSTSWPVFKSTEQKYLTLNTESTRIMTKLRAQQCRFWTSFFPKVLEMTGNIDEAEWEWKAGFHRWNNYMMDWKNQFNDYTSKKESCVGL | No activity
V288W (protein, UniProt P06276 29-602, looked up, variant V288W) Cholinesterase: EDDIIIATKNGKVRGMNLTVFGGTVTAFLGIPYAQPPLGRLRFKKPQSLTKWSDIWNATKYANSCCQNIDQSFPGFHGSEMWNPNTDLSEDCLYLNVWIPAPKPKNATVLIWIYGGGFQTGTSSLHVYDGKFLARVERVIVVSMNYRVGALGFLALPGNPEAPGNMGLFDQQLALQWVQKNIAAFGGNPKSVTLFGESAGAASVSLHLLSPGSHSLFTRAILQSGSFNAPWAVTSLYEARNRTLNLAKLTGCSRENETEIIKCLRNKDPQEILLNEAFVVPYGTPLSWNFGPTVDGDFLTDMPDILLELGQFKKTQILVGVNKDEGTAFLVYGAPGFSKDNNSIITRKEFQEGLKIFFPGVSEFGKESILFHYTDWVDDQRPENYREALGDVVGDYNFICPALEFTKKFSEWGNNAFFYYFEHRSSKLPWPEWMGVMHGYEIEFVFGLPLERRDNYTKAEEILSRSIVKRWANFAKYGNPNETQNNSTSWPVFKSTEQKYLTLNTESTRIMTKLRAQQCRFWTSFFPKVLEMTGNIDEAEWEWKAGFHRWNNYMMDWKNQFNDYTSKKESCVGL | Not a cocaine hydrolase
A328H (protein, UniProt P06276 29-602, looked up, variant A328H) Cholinesterase: EDDIIIATKNGKVRGMNLTVFGGTVTAFLGIPYAQPPLGRLRFKKPQSLTKWSDIWNATKYANSCCQNIDQSFPGFHGSEMWNPNTDLSEDCLYLNVWIPAPKPKNATVLIWIYGGGFQTGTSSLHVYDGKFLARVERVIVVSMNYRVGALGFLALPGNPEAPGNMGLFDQQLALQWVQKNIAAFGGNPKSVTLFGESAGAASVSLHLLSPGSHSLFTRAILQSGSFNAPWAVTSLYEARNRTLNLAKLTGCSRENETEIIKCLRNKDPQEILLNEAFVVPYGTPLSVNFGPTVDGDFLTDMPDILLELGQFKKTQILVGVNKDEGTHFLVYGAPGFSKDNNSIITRKEFQEGLKIFFPGVSEFGKESILFHYTDWVDDQRPENYREALGDVVGDYNFICPALEFTKKFSEWGNNAFFYYFEHRSSKLPWPEWMGVMHGYEIEFVFGLPLERRDNYTKAEEILSRSIVKRWANFAKYGNPNETQNNSTSWPVFKSTEQKYLTLNTESTRIMTKLRAQQCRFWTSFFPKVLEMTGNIDEAEWEWKAGFHRWNNYMMDWKNQFNDYTSKKESCVGL | Not a cocaine hydrolase
G439L (protein, UniProt P06276 29-602, looked up, variant G439L) Cholinesterase: EDDIIIATKNGKVRGMNLTVFGGTVTAFLGIPYAQPPLGRLRFKKPQSLTKWSDIWNATKYANSCCQNIDQSFPGFHGSEMWNPNTDLSEDCLYLNVWIPAPKPKNATVLIWIYGGGFQTGTSSLHVYDGKFLARVERVIVVSMNYRVGALGFLALPGNPEAPGNMGLFDQQLALQWVQKNIAAFGGNPKSVTLFGESAGAASVSLHLLSPGSHSLFTRAILQSGSFNAPWAVTSLYEARNRTLNLAKLTGCSRENETEIIKCLRNKDPQEILLNEAFVVPYGTPLSVNFGPTVDGDFLTDMPDILLELGQFKKTQILVGVNKDEGTAFLVYGAPGFSKDNNSIITRKEFQEGLKIFFPGVSEFGKESILFHYTDWVDDQRPENYREALGDVVGDYNFICPALEFTKKFSEWGNNAFFYYFEHRSSKLPWPEWMGVMHLYEIEFVFGLPLERRDNYTKAEEILSRSIVKRWANFAKYGNPNETQNNSTSWPVFKSTEQKYLTLNTESTRIMTKLRAQQCRFWTSFFPKVLEMTGNIDEAEWEWKAGFHRWNNYMMDWKNQFNDYTSKKESCVGL | No cocaine hydrolysis activity
L286H (protein, UniProt P06276 29-602, looked up, variant L286H) Cholinesterase: EDDIIIATKNGKVRGMNLTVFGGTVTAFLGIPYAQPPLGRLRFKKPQSLTKWSDIWNATKYANSCCQNIDQSFPGFHGSEMWNPNTDLSEDCLYLNVWIPAPKPKNATVLIWIYGGGFQTGTSSLHVYDGKFLARVERVIVVSMNYRVGALGFLALPGNPEAPGNMGLFDQQLALQWVQKNIAAFGGNPKSVTLFGESAGAASVSLHLLSPGSHSLFTRAILQSGSFNAPWAVTSLYEARNRTLNLAKLTGCSRENETEIIKCLRNKDPQEILLNEAFVVPYGTPHSVNFGPTVDGDFLTDMPDILLELGQFKKTQILVGVNKDEGTAFLVYGAPGFSKDNNSIITRKEFQEGLKIFFPGVSEFGKESILFHYTDWVDDQRPENYREALGDVVGDYNFICPALEFTKKFSEWGNNAFFYYFEHRSSKLPWPEWMGVMHGYEIEFVFGLPLERRDNYTKAEEILSRSIVKRWANFAKYGNPNETQNNSTSWPVFKSTEQKYLTLNTESTRIMTKLRAQQCRFWTSFFPKVLEMTGNIDEAEWEWKAGFHRWNNYMMDWKNQFNDYTSKKESCVGL | Not a cocaine hydrolase
A328G (protein, UniProt P06276 29-602, looked up, variant A328G) Cholinesterase: EDDIIIATKNGKVRGMNLTVFGGTVTAFLGIPYAQPPLGRLRFKKPQSLTKWSDIWNATKYANSCCQNIDQSFPGFHGSEMWNPNTDLSEDCLYLNVWIPAPKPKNATVLIWIYGGGFQTGTSSLHVYDGKFLARVERVIVVSMNYRVGALGFLALPGNPEAPGNMGLFDQQLALQWVQKNIAAFGGNPKSVTLFGESAGAASVSLHLLSPGSHSLFTRAILQSGSFNAPWAVTSLYEARNRTLNLAKLTGCSRENETEIIKCLRNKDPQEILLNEAFVVPYGTPLSVNFGPTVDGDFLTDMPDILLELGQFKKTQILVGVNKDEGTGFLVYGAPGFSKDNNSIITRKEFQEGLKIFFPGVSEFGKESILFHYTDWVDDQRPENYREALGDVVGDYNFICPALEFTKKFSEWGNNAFFYYFEHRSSKLPWPEWMGVMHGYEIEFVFGLPLERRDNYTKAEEILSRSIVKRWANFAKYGNPNETQNNSTSWPVFKSTEQKYLTLNTESTRIMTKLRAQQCRFWTSFFPKVLEMTGNIDEAEWEWKAGFHRWNNYMMDWKNQFNDYTSKKESCVGL | Not a cocaine hydrolase
L286W (protein, UniProt P06276 29-602, looked up, variant L286W) Cholinesterase: EDDIIIATKNGKVRGMNLTVFGGTVTAFLGIPYAQPPLGRLRFKKPQSLTKWSDIWNATKYANSCCQNIDQSFPGFHGSEMWNPNTDLSEDCLYLNVWIPAPKPKNATVLIWIYGGGFQTGTSSLHVYDGKFLARVERVIVVSMNYRVGALGFLALPGNPEAPGNMGLFDQQLALQWVQKNIAAFGGNPKSVTLFGESAGAASVSLHLLSPGSHSLFTRAILQSGSFNAPWAVTSLYEARNRTLNLAKLTGCSRENETEIIKCLRNKDPQEILLNEAFVVPYGTPWSVNFGPTVDGDFLTDMPDILLELGQFKKTQILVGVNKDEGTAFLVYGAPGFSKDNNSIITRKEFQEGLKIFFPGVSEFGKESILFHYTDWVDDQRPENYREALGDVVGDYNFICPALEFTKKFSEWGNNAFFYYFEHRSSKLPWPEWMGVMHGYEIEFVFGLPLERRDNYTKAEEILSRSIVKRWANFAKYGNPNETQNNSTSWPVFKSTEQKYLTLNTESTRIMTKLRAQQCRFWTSFFPKVLEMTGNIDEAEWEWKAGFHRWNNYMMDWKNQFNDYTSKKESCVGL | Not a cocaine hydrolase
